Source: publication PMC7398979

What was measured:
[1] = biological target: sulfur oxygenase reductase from Sulfurisphaera tokodaii (Sulfurisphaera tokodaii strain 7); experiment: crystal structure; sitting drop at 20 °C, 1.2 M ammonium sulfate, 100 mM MES-NaOH pH 6.1, 4% dioxane; space group I23, 8 monomers per asymmetric unit; 1.73 Å
[2] = biological target: sulfur oxygenase reductase from Sulfurisphaera tokodaii (Sulfurisphaera tokodaii strain 7); experiment: SEC; gel filtration on HiLoad 16/600 Superdex 200 pg; standards thyroglobulin (669 k), pyruvate kinase (237 k), ovalbumin (44 k), RNaseA (14 k); peak at 539 kDa
[3] = biological target: sulfur oxygenase reductase from Sulfurisphaera tokodaii (Sulfurisphaera tokodaii strain 7); experiment: cryo-EM structure; single particle analysis, 10 mg/mL in 20 mM Tris-HCl pH 8.0, 150 mM NaCl; sample partially purified (heat treatment, gel filtration); 200 kV Talos Arctica; octahedral symmetry imposed, 2.24 Å (C1: 2.73 Å)

How did the stoichiometry N [1] turn out when “sulfur oxygenase reductase from Sulfurisphaera tokodaii (enzyme)” was run?
The stoichiometry N was 24.

And the stoichiometry N [2]?
Its stoichiometry N is 15 to 16.

What about the stoichiometry N [3] of the same substance?
Its stoichiometry N is 24.
